Results taken from the supplement of paper PMC6757056.
± gives the standard deviation of the averaged measurements.

B1: library; a variant is named by its letters at N, in order (parent)
chain: GCUGUCACCGGUGCUUGGUACGUUAUAUUCAGCCGGUCUGAUGAGUCUNNNNNNAGACGAAACAGC

Legend:
[1] = variants of: B1; assay: normalized RNA/DNA level without ligand (relative to sTRSVctl = 100) (log10 (% of sTRSVctl)); HEK293T overexpressing SLC46A1; higher = less ribozyme self-cleavage, higher mRNA level; details: without (6R,S)-folinic acid; ligand present: no
Outline: (§1)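 Total RNA, extracted with EDTA 72 h after HEK293T cells were transfected with 4 µg per 6-well well of reporter-linked ribozyme switch library plasmids, was reverse-transcribed, amplified, barcoded and sequenced. Ligand, if used, was added 1 h before transfection. RNA level was derived from RNA reads divided by DNA reads and normalized to a spiked-in non-cleaving sequence or to the top sequences. This was multiplied by 100 and log10-transformed, with the top set of 25 sequences and a ≥100 DNA read minimum.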

[2] = variants of: B1; assay: normalized RNA/DNA level with ligand (relative to sTRSVctl = 100) (log10 (% of sTRSVctl)); HEK293T overexpressing SLC46A1; ligand concentration (+) RNA-Seq: 6 mM; higher = less ribozyme self-cleavage, higher mRNA level; details: with (6R,S)-folinic acid; ligand present: yes
Outline: as §1

Variant	normalized RNA/DNA level without ligand (log10) [1]	normalized RNA/DNA level with ligand (log10) [2]
UAGUUU	2.01 ± 0.0059	2.02 ± 0.033
UAGUUC	2.0145 ± 0.00068	2.03 ± 0.027
UAGUUA	1.932 ± 0.015	1.984 ± 0.0094
UAGUCU	2.0118 ± 0.0019	2.02 ± 0.037
UAGUCC	2.0087 ± 0.0016	2.03 ± 0.057
UAGUCG	1.813 ± 0.0049	1.99 ± 0.043
UAGUCA	1.98 ± 0.021	2.01 ± 0.038
UAGGUU	1.961 ± 0.011	2 ± 0.026
UAGGUC	2.05 ± 0.022	2 ± 0.054
GAGACC	2.021 ± 0.0065	2.04 ± 0.057
GAGACA	1.976 ± 0.0079	2.01 ± 0.031
GAGACG	1.978 ± 0.014	2.031 ± 0.014
AAGAGC	1.984 ± 0.0028	1.99 ± 0.044
CAGGUU	2 ± 0.032	2 ± 0.022
CAGGUC	2.08 ± 0.0023	2.04 ± 0.045
AAGCGA	1.95 ± 0.02	2.02 ± 0.048
AAGCGG	1.941 ± 0.005	2 ± 0.054
AAGCGC	2.025 ± 0.0081	2.03 ± 0.05
AAGCGU	1.956 ± 0.0071	2.02 ± 0.04

Variant	normalized RNA/DNA level without ligand (log10) [1]	normalized RNA/DNA level with ligand (log10) [2]
UAGGGC	2.01 ± 0.0043	2.02 ± 0.03
UAUACA	1.965 ± 0.003	2.01 ± 0.05
GACUGU	1.98 ± 0.011	1.98 ± 0.068
GACUGG	2.023 ± 0.018	2.018 ± 0.018
GACUGA	2.03 ± 0.02	2 ± 0.025
GACUGC	1.998 ± 0.0095	2.02 ± 0.037
UAGGCA	1.972 ± 0.00036	2.027 ± 0.02
UAGGCU	2.03 ± 0.024	2.05 ± 0.061
UAGGCG	1.762 ± 0.0037	1.97 ± 0.032
UAGGCC	2.047 ± 0.004	2.04 ± 0.044
CAUAGU	2.003 ± 0.013	2.025 ± 0.0053
CAUAGG	1.911 ± 0.019	1.998 ± 0.0083
CAUAGC	1.9903 ± 0.00018	1.98 ± 0.047
CAUAGA	2.002 ± 0.0073	2.01 ± 0.033
AACUAU	1.975 ± 0.0066	2 ± 0.037
AACUAA	1.97 ± 0.023	1.96 ± 0.026
AACUAG	1.94 ± 0.022	2.02 ± 0.039
CAGUAC	1.96 ± 0.036	1.97 ± 0.04
CAGUAU	1.951 ± 0.0075	2.016 ± 0.013

Variant	normalized RNA/DNA level without ligand (log10) [1]	normalized RNA/DNA level with ligand (log10) [2]
CAGUAG	1.93 ± 0.023	1.99 ± 0.052
CAGCGU	1.999 ± 0.0031	1.99 ± 0.053
CAGCGC	2.046 ± 0.016	2.01 ± 0.039
CAGCGG	1.984 ± 0.0099	2.06 ± 0.029
CAGCGA	2.03 ± 0.0044	2.002 ± 0.0065
AAGUGC	1.984 ± 0.0023	2.01 ± 0.052
AAGUGG	1.87 ± 0.01	2.02 ± 0.041
CAGAUC	2.046 ± 0.013	2.03 ± 0.052
CAGAUU	1.997 ± 0.01	2.004 ± 0.011
CAGAUG	2.0121 ± 0.0011	2.026 ± 0.019
AAUCAA	1.973 ± 0.014	1.9902 ± 0.00064
AAUCAU	1.961 ± 0.0057	1.992 ± 0.011
AAUCAC	2.008 ± 0.0074	2 ± 0.024
GAGCGG	1.982 ± 0.011	2.06 ± 0.031
GAGCGC	2.002 ± 0.017	2.03 ± 0.054
GAGCGU	1.982 ± 0.0095	2 ± 0.048
GACUCA	2.004 ± 0.0082	1.98 ± 0.028
GACUCG	2.0319 ± 0.0013	2.05 ± 0.032
GACUCU	2.033 ± 0.0069	2 ± 0.066
